In patent US10428342B2, “P-coumaroyl-CoA:monolignol transferase” (Wisconsin Alumni Research Foundation, priority 2011, dated 2019):
Entries after “also recorded” stand apart in the source; their conditions may differ. Each block holds one molecule with its values, some of them ahead of it.

How the values were obtained:
OsPMT = target: T1, OsPMT (Oryza sativa subsp. japonica, UniProt Q5JNT2); test: OsPMT kinetic assay (CoASH release detected with DTNB at A412); type: biochemical; settings: for Substrate quality as acyl donor for OsPMT: tested acyl donors, in words
T1 construct: 6xHis (N); made in house; host or cells: E. coli BL21
T1 sequence (Q5JNT2 1-439): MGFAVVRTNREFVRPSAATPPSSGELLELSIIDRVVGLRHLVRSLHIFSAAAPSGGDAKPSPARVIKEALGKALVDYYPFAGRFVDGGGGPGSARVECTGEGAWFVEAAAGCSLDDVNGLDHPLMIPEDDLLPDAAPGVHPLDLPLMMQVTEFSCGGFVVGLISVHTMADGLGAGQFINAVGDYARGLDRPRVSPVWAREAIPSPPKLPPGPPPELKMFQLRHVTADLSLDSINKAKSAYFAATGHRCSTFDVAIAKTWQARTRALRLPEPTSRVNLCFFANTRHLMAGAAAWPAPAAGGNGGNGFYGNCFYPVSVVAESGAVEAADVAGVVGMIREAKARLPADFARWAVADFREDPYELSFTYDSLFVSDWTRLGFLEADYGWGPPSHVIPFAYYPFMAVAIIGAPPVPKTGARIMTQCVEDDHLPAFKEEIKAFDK
Description: (§1) Kinetics—Kinetic analyses were performed using an assay modified from Santoro et al. (Anal. Biochem. 354: 70-77 (2006)). The standard 100 μL reaction mixture contained 50 mM sodium phosphate pH 6, 2 mM 5,5′-dithiobis-(2-nitrobenzoic acid) (DTNB), 0.01-1 mM CoA thioester substrate, and 0.005-1.0 mM monolignol alcohol substrate and initiated by adding 100 ng of purified OsPMT protein in 1×BSA (NEB). The CoA thioester substrates included p-coumaroyl-CoA 2a and caffeoyl-CoA 2b, and the monolignol substrates included sinapyl alcohol 1S and p-coumaryl alcohol 1H. Enzyme activity was measured as an increase in CoASH, detected with DTNB at A412, which is released as a result of monolignol conjugate synthesis (id.). The absorbance was measured every three min. for 40 min on a Spectramax Plus microplate reader using Softmax Pro 5.3 (Molecular Devices). The reactions were stopped by adding hydrochloric acid to a concentration of 100 mM, and then solubilized by adding methanol to 50%. Aliquots of 10 μL from each assay were analyzed via UPLC to verify product production. A standard curve was created for each CoA thioester from triplicate assays of five concentrations from 50 nM to 1 mM of coenzyme-A. Each reaction contained the same buffer and DTNB concentrations as the kinetic assays, along with 0.5 mM of a CoA thioester (p-coumaroyl-CoA 2a, caffeoyl-CoA 2b, or feruloyl-CoA 2c). The equation derived from fitting this standard curve was used to calculate the quantity (moles) of product synthesized in the assay. Kinetic parameters, Vmax and Km, were calculated using a nonlinear regression by entering the reaction rate and substrate concentration into the program R64, version 2.12.0 (Team, R. D. C., R: A language and environment for statistical computing, R Foundation for Statistical Computing, Vienna, Austria (2010).

[1] = tested on: feruloyl-CoA:monolignol transferase (FMT); test: FMT enzymatic assay (UPLC detection of product); type: biochemical, Angelica sinensis; settings: for Product formed by FMT from CoA thioester: CoA thioester as acyl donor, coniferyl alcohol as acceptor; for FMT activity with monolignol: monolignol as acyl acceptor, feruloyl-CoA as donor
Description: The FMT activity assay contained 100 mM MOPS pH 6.8, 1 mM dithiothreitol (DTT), 1 mM feruloyl-CoA, 1 mM coniferyl alcohol, 3.9 μg of purified FMT protein and deionized water to a volume of 50 μL. After a 30-minute incubation, 1 μL of 10 M hydrochloric acid was added to stop the reaction. Because the product synthesized in the reaction, coniferyl ferulate (CAFA), is insoluble, 50 μL of methanol was added to solubilize the CAFA. Prior to UPLC, protein and insoluble material were removed by filtering through an Amicon Ultracel 10K membrane filter (Millipore). The flow-through was analyzed using an Acquity Ultra Performance LC with an Acquity UPLC BEH C18 1.7 μm 2.1×100 mm column and the Acquity Console and Empower 2 Software, all from Waters Corporation. The solvents used in this method were solvent A, 0.1% trifluoroacetic acid, and solvent B, 100% acetonitrile. Samples were analyzed using the following gradient conditions, 13% B, for 5 minutes, 1 minute linear gradient to 42% B, held for 4 minutes, 1 minute linear gradient to 100% B, held for 1 minutes and 3 minutes at 13% B with a flow rate of 0.3 ml/minute. This method was then used to analyze a 10 μL injection of each assay reaction; standards for each of the substrates along with chemically synthesized CAFA were used to determine retention times for each compound. Purified recombinant enzyme was assayed for FMT activity using a reaction mixture containing 2 mM coniferyl alcohol, […], 100 mM HEPES pH 7.4 and 1 mM DTT. The second most abundant BAHD acyltransferase gene when incubated with Coniferyl alcohol and feruloyl-CoA produced a compound with the retention time of authentic coniferyl ferulate (CAFA) (FIG. 2). […] The addition of methanol to 50% after stopping the enzyme with acid was required to analyze the product by UPLC. The insolubility of the product made partial purification easy as the product was separated from the substrates by centrifugation.

[2] = Solubility observed in aqueous enzyme assay mixtures; type: physicochemical; settings: aqueous assay mixture, in words
Description: The FMT activity assay contained 100 mM MOPS pH 6.8, 1 mM dithiothreitol (DTT), 1 mM feruloyl-CoA, 1 mM coniferyl alcohol, 3.9 μg of purified FMT protein and deionized water to a volume of 50 μL. After a 30-minute incubation, 1 μL of 10 M hydrochloric acid was added to stop the reaction. Because the product synthesized in the reaction, coniferyl ferulate (CAFA), is insoluble, 50 μL of methanol was added to solubilize the CAFA. Prior to UPLC, protein and insoluble material were removed by filtering through an Amicon Ultracel 10K membrane filter (Millipore). The flow-through was analyzed using an Acquity Ultra Performance LC with an Acquity UPLC BEH C18 1.7 μm 2.1×100 mm column and the Acquity Console and Empower 2 Software, all from Waters Corporation. The solvents used in this method were solvent A, 0.1% trifluoroacetic acid, and solvent B, 100% acetonitrile. Samples were analyzed using the following gradient conditions, 13% B, for 5 minutes, 1 minute linear gradient to 42% B, held for 4 minutes, 1 minute linear gradient to 100% B, held for 1 minutes and 3 minutes at 13% B with a flow rate of 0.3 ml/minute. This method was then used to analyze a 10 μL injection of each assay reaction; standards for each of the substrates along with chemically synthesized CAFA were used to determine retention times for each compound. […]

[3] = substrate: CC(C)(COP(=O)(O)OP(=O)(O)OC[C@H]1O[C@@H](n2cnc3c(N)ncnc32)[C@H](O)[C@@H]1OP(=O)(O)O)[C@@H](O)C(=O)NCCC(=O)NCCSC(=O)/C=C/c1ccc(O)cc1; test: OsPMT kinetic assay (CoASH release detected with DTNB at A412); type: biochemical, Oryza sativa; settings: other: varying substrate, pH 6.0
Description: as §1

[4] = substrate: OC/C=C/c1ccc(O)cc1; test: as above; type: biochemical, Oryza sativa; settings: other: varying substrate, pH 6.0
Description: as §1

[5] = substrate: CC(C)(COP(=O)(O)OP(=O)(O)OC[C@H]1O[C@@H](n2cnc3c(N)ncnc32)[C@H](O)[C@@H]1OP(=O)(O)O)[C@@H](O)C(=O)NCCC(=O)NCCSC(=O)/C=C/c1ccc(O)c(O)c1; test: as above; type: biochemical, Oryza sativa; settings: other: varying substrate, pH 6.0
Description: as §1

[6] = substrate: COc1cc(/C=C/CO)cc(OC)c1O; test: as above; type: biochemical, Oryza sativa; settings: other: varying substrate, pH 6.0
Description: as §1

[7] = saturating substrate p-coumaryl alcohol 1H
[8] = saturating substrate sinapyl alcohol 1S
[9] = saturating substrate caffeoyl-CoA 2b
[10] = saturating substrate p-coumaroyl-CoA 2a

Synthetic rate relative to sinapyl alcohol 1S (OsPMT; acyl acceptor compared with sinapyl alcohol 1S): 6 times
FMT activity with monolignol [1]: active
Molecule: OC/C=C/c1ccc(O)cc1 [p-coumaryl alcohol 1H, p-coumaryl alcohol]

Solubility [2]: limited solubility
Molecule: OC/C=C/c1ccc(O)c(O)c1 [caffeyl alcohol 1C, caffeyl alcohol]

Maximum reaction rate relative to caffeoyl-CoA 2b (OsPMT; acyl donor compared with caffeoyl-CoA 2b): at least 5 fold
Substrate quality as acyl donor for OsPMT (OsPMT): good substrates
Product formed by FMT from CoA thioester [1]: very little product
Molecule: CC(C)(COP(=O)(O)OP(=O)(O)OC[C@H]1O[C@@H](n2cnc3c(N)ncnc32)[C@H](O)[C@@H]1OP(=O)(O)O)[C@@H](O)C(=O)NCCC(=O)NCCSC(=O)/C=C/c1ccc(O)cc1 [p-coumaroyl-CoA 2a, p-coumaroyl-CoA]

FMT activity with monolignol [1]: active
Molecule: COc1cc(/C=C/CO)cc(OC)c1O [sinapyl alcohol 1S, sinapyl alcohol]

FMT activity with monolignol [1]: active
Molecule: COc1cc(/C=C/CO)ccc1O [coniferyl alcohol 1G, coniferyl alcohol]

Further lines, the molecule ahead of its results:

Molecule: CC(C)(COP(=O)(O)OP(=O)(O)OC[C@H]1O[C@@H](n2cnc3c(N)ncnc32)[C@H](O)[C@@H]1OP(=O)(O)O)[C@@H](O)C(=O)NCCC(=O)NCCSC(=O)/C=C/c1ccc(O)c(O)c1 [caffeoyl-CoA 2b, caffeoyl-CoA]
Substrate quality as acyl donor for OsPMT (OsPMT): good substrates
Product formed by FMT from CoA thioester [1]: very little product

Molecule: COc1cc(/C=C/C(=O)SCCNC(=O)CCNC(=O)[C@H](O)C(C)(C)COP(=O)(O)OP(=O)(O)OC[C@H]2O[C@@H](n3cnc4c(N)ncnc43)[C@H](O)[C@@H]2OP(=O)(O)O)ccc1O [feruloyl-CoA 2c, feruloyl-CoA]
Substrate quality as acyl donor for OsPMT (OsPMT): poor substrate
Product formed by FMT from CoA thioester [1]: substantial product

Molecule: COc1cc(/C=C/COC(=O)/C=C/c2ccc(O)c(OC)c2)ccc1O [coniferyl ferulate]
Solubility [2]: mostly insoluble in water; also recorded: partially insoluble

B1: OsPMT (Oryza sativa Japonica Group) (protein)
chain: MGFAVVRTNREFVRPSAATPPSSGELLELSIIDRVVGLRHLVRSLHIFSAAAPSGGDAKPSPARVIKEALGKALVDYYPFAGRFVDGGGGPGSARVECTGEGAWFVEAAAGCSLDDVNGLDHPLMIPEDDLLPDAAPGVHPLDLPLMMQVTEFSCGGFVVGLISVHTMADGLGAGQFINAVGDYARGLDRPRVSPVWAREAIPSPPKLPPGPPPELKMFQLRHVTADLSLDSINKAKSAYFAATGHRCSTFDVAIAKTWQARTRALRLPEPTSRVNLCFFANTRHLMAGAAAWPAPAAGGNGGNGFYGNCFYPVSVVAESGAVEAADVAGVVGMIREAKARLPADFARWAVADFREDPYELSFTYDSLFVSDWTRLGFLEADYGWGPPSHVIPFAYYPFMAVAIIGAPPVPKTGARIMTQCVEDDHLPAFKEEIKAFDK
notes: 6xHis (N); made in house; host or cells: E. coli BL21
Km [3, 7]: 281 ± 62 µM
Vmax [3, 7]: 3.69 µmol/min/mg
kcat [3, 7]: 2.93 s⁻¹
Km [3, 8]: 105 ± 12 µM
Vmax [3, 8]: 0.75 µmol/min/mg
kcat [3, 8]: 0.6 s⁻¹
Km [4, 9]: 27 ± 6 µM
Vmax [4, 9]: 0.355 µmol/min/mg
kcat [4, 9]: 0.28 s⁻¹
Km [4, 10]: 141 ± 14 µM
Vmax [4, 10]: 3.25 µmol/min/mg
kcat [4, 10]: 2.58 s⁻¹
Km [5, 7]: 92 ± 11 µM
Vmax [5, 7]: 0.515 µmol/min/mg
kcat [5, 7]: 0.41 s⁻¹
Km [5, 8]: 75 ± 5 µM
Vmax [5, 8]: 0.45 µmol/min/mg
kcat [5, 8]: 0.36 s⁻¹
Km [6, 9]: 15 ± 2 µM
Vmax [6, 9]: 0.486 µmol/min/mg
kcat [6, 9]: 0.39 s⁻¹
Km [6, 10]: 35 ± 5 µM
Vmax [6, 10]: 0.648 µmol/min/mg
kcat [6, 10]: 0.51 s⁻¹
